The values below come from patent US20260209365A1, “ANTI-COMMON GAMMA CHAIN PROTEINS AND COMPOSITIONS OF MATTER” (SINOMAB BIOSCIENCE LIMITED, priority 2023, published 2026).

Substitutions are numbered along the chain they refer to.

Format in all cases: cell-based, human
Common to all, as to details: ScFv 10 μg/ml

In experiment [1] the test system is IL-15 induced STAT5 phosphorylation. Briefly: Inhibition of IL-15 induced STAT phosphorylation in KHYG-1 NK cell line, flow cytometry. The source says:
(§1) Cells were harvested and stained with FITC conjugated anti-pSTAT6, PE conjugated anti-pSTAT3 or APC con jugated anti-pSTAT5 antibodies for flow cytometry analyses. In some embodiments, the purified ScFv could block the IL-4 induced STAT6 phosphorylation in cell culture (e.g., Ramos). In some embodiments, the purified ScFv could block the IL-7 induced STAT5 phosphorylation in cell culture (e.g., HPB-ALL). In some embodiments, the purified ScFv could block the IL-9 induced STAT3 phosphorylation in cell culture (e.g., Jurkat). In some embodiments, the purified ScFv could block the IL-15 induced STAT5 phosphorylation in cell culture (e.g., KHYG-1). In some embodiments, the purified ScFv could block the IL-21 induced STAT3 phosphorylation in cell culture (e.g., Ramos).
(§2) Flow cytometry was employed to measure the percentage of p-STAT expressing cells after cytokine induction and anti-γc ScFv treatment. KHYG-1 (Creative Bioarray, Shirley, NY 11967, USA) was starved in IL-2 free RPMI1640 (ATCC modification, ThermoFisher Scientific, Waltham, MA, USA) with 10% FBS (ThermoFisher Scientific) for 2 days. Ramos, HPB-ALL and Jurkat cell lines were used directly without starvation. Cells were replenished with fresh RPMI1640 medium and pretreated with anti-γc ScFv (10 μg/mL) for an hour. After treatment with TL-4 (10 ng/ml, Sino Biological), IL-7 (50 ng/ml, Sino Biological), IL-9 (50 ng/ml, Sino Biological), IL-15 (10 ng/ml, Sino Biological) or IL-21 (10 ng/ml, Sino Biological) for 15 min, cells were fixed in 4% paraformaldehyde (PFA, Sigma, St. Louis, Missouri, USA) for 10 min, permeabilized in 0.1% Triton X-100 (Sigma) for 10 min and then stained with FITC conjugated anti-pSTAT6, PE conjugated anti-pSTAT3 or APC con jugated anti-pSTAT5 (all diluted in 1:100, Biolegend, San Diego, California, USA) for 30 min at 37° C. Percentage of p-STAT expressing cells was measured by BD FACSLyric™ Clinical Flow Cytometry System (BD Biosciences, New Jersey, USA). Data were analyzed by Flowjo (version 10, BD).
(§3) Different cell lines were used for testing. KHYG-1 refers to the NK cell line harvested from the peripheral blood of a person with aggressive NK cell leukemia. This cell line could respond to IL-2 and IL-15 stimulation in-vitro [Yamasaki et al., Leuk Res., […]; 28 (10): 1023-31]. Ramos is a human Burkitts Lymphoma cell line (CRL-1596™) and could be used as a model for IL-4 and IL-21 studies [Hui et al., Front Immunol., 2022; 13: 919854]. Jurkat is a human T lymphoblast cell line (Clone E6-1, TIB-152™) and is widely used in the T cell studies of IL-9 function. HPB-ALL is a T cell leukemia model established from the peripheral blood of a child with ALL and thymoma at diagnosis in 1973 and could be used for IL-7 functional studies.
A general note: A flow cytometer gives signals particle by particle.

The subject of experiment [2] is IL-4 induced STAT6 phosphorylation. Briefly: Inhibition of IL-4 induced STAT phosphorylation in Ramos B cell line, flow cytometry.
Source text: as §1, §2, §3

Experiment [3] deals with IL-7 induced STAT5 phosphorylation. Description: Inhibition of IL-7 induced STAT5 phosphorylation in HPB-ALL T cell line, flow cytometry.
Source text: as §1, §2, §3

For experiment [4], the system named is IL-21 induced STAT3 phosphorylation. Description: Inhibition of IL-21 induced STAT phosphorylation in Ramos B cell line, flow cytometry.
Source text: as §1, §2, §3

For experiment [5], the system named is IL-9 induced STAT3 phosphorylation. Description: Inhibition of IL-9 induced STAT3 phosphorylation in Jurkat T cell line, flow cytometry.
Source text: as §1, §2, §3

B1: SM-05J: anti-γc antibody; CDR SEQ ID NO: 148, 150, 152, 156, 158, 160 (antibody, V domains shown)
VH: EVQLQQSGPELVKPGASVKISCKTSGYTFTEYTMHWVKQSHGKSLEWIGGIDPYNGGITYNQRFKGKATLTVDKSSSTAYMELRSLTSEDSAVYYCARRRLYYGYALDYWGQGTSVTVSS
VL: DVVMTQTPLSLPVSLGDQASISCRSSQSIVHSNGNTYLEWYLQKPGQSPKLLIYKVSNRFSGVPDRFSGSGSGTDFTLKISRVEAEDLGVYYCFQGSHVPFTFGSGTKLEIK
modifications: left off: another chain or arm of the molecule; small tags and cut ends
As to B1, the “p-STAT5 inhibition (%)” value amounted to 42.71% in experiment [1] and 98.10% in experiment [3]. Further, the “p-STAT6 inhibition (%)” value in experiment [2] stood at 82.22%. In addition, the “p-STAT3 inhibition (%)” value in experiment [4] worked out at 75.77%; in experiment [5], 100%.

B2: SM-05D: anti-γc antibody; CDR SEQ ID NO: 52, 54, 56, 60, 62, 64 (antibody, V domains shown)
VH: B1 VH with E1Q, I58V, L83F, Y105N
VL: B1 VL with V2I, S32R
modifications: left off: another chain or arm of the molecule; small tags and cut ends
Take B2: the figures for the “p-STAT5 inhibition (%)” value in experiment [1] and in experiment [3] were 48.59% and 99.80%, respectively. Moreover, the “p-STAT6 inhibition (%)” value in experiment [2] is reported as 63.77%. The “p-STAT3 inhibition (%)” value in experiment [4] was found to be 30.00%; in experiment [5] it was 100%.

B3: SM-05B: anti-γc antibody; CDR SEQ ID NO: 20, 22, 24, 28, 30, 32 (antibody, V domains shown)
VH: B1 VH with E1Q, S21F, K43E, Y54N, N55T, I58A, R63K, V72A, L101R
VL: B1 VL with V3L, Y92F, F94S, G96S, S97T, F101W, S105G
modifications: left off: another chain or arm of the molecule; small tags and cut ends
In the case of B3, the “p-STAT5 inhibition (%)” value is listed as 47.06% in experiment [1] and 94.50% in experiment [3]. For the same molecule, the “p-STAT6 inhibition (%)” value in experiment [2] came to 76.95%. The “p-STAT3 inhibition (%)” value in experiment [4] is 13.85%; in experiment [5], 82.64%.

B4: SM-05L: anti-γc antibody; CDR SEQ ID NO: 180, 182, 184, 188, 190, 192 (antibody, V domains shown)
VH: B1 VH with Y54N, N55S, I58A, R63K, L83V, L107M
VL: B1 VL with V3L, D17G, S28N, Y92F, F94S, G96S, S97T, T102A
modifications: left off: another chain or arm of the molecule; small tags and cut ends
B4: the figures for the “p-STAT5 inhibition (%)” value in experiment [1] and in experiment [3] were 49.10% and 100%, respectively. Besides, in experiment [2], the “p-STAT6 inhibition (%)” value was 73.54%. Also, the results for the “p-STAT3 inhibition (%)” value in experiment [4] and in experiment [5] were 26.03% and 92.36%, respectively.

B5: SM-05C: anti-γc antibody; CDR SEQ ID NO: 36, 38, 40, 44, 46, 48 (antibody, V domains shown)
VH: B1 VH with E1Q, S21F, K43E, Y54N, N55T, I58A, R63K, V72A, L101R, L107M
VL: B1 VL with I29L, E39H, V90I, G96D
modifications: left off: another chain or arm of the molecule; small tags and cut ends
With B5, the figures for the “p-STAT5 inhibition (%)” value in experiment [1] and in experiment [3] were 46.04% and 100%, respectively. Further, the “p-STAT6 inhibition (%)” value in experiment [2] stood at 45.99%. Also, the figures for the “p-STAT3 inhibition (%)” value in experiment [4] and in experiment [5] were 29.10% and 97.92%, respectively.
